PMC5928105

Target: 20S proteasome core (mouse (endogenous in mouse retina)) (UniProt Q9Z2U0)
Assay: SEC; retinal lysates of WT or PA28α overexpressing mice on Superose-6 (Fig. 1) or Superose-6 Increase; 50 mM Tris-HCl pH 7.4, 40 mM NaCl, 5 mM MgCl2, 10% glycerol, 1 mM DTT, 1 mM ATP; 0.5 ml fractions western-blotted for β1 (20S), PSMD11 (19S) and PA28α (11S)

Sequence of UniProt Q9Z2U0 (Q9Z2U0 whole entry, looked up): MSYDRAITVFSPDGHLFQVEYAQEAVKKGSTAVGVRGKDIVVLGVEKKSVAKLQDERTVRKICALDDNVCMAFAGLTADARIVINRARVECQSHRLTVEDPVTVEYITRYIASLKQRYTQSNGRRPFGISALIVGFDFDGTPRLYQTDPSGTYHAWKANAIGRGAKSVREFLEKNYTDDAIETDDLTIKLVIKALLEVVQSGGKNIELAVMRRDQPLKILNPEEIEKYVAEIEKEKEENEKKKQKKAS

| percent of PA28α co-eluting with 20S | percent of 20S cores co-eluting with 19S caps | Substance |
| --- | --- | --- |
| 2% | – | 11S caps formed upon PA28α overexpression (homomeric, PA28α subunits alone) (from UniProt P97371 1-249) (complex) |
| – | 45% | 19S proteasome cap (from UniProt Q8BG32 1-422; Q8BJY1 1-504; Q99JI4 1-389; Q3TXS7 1-953) (complex) |
